Test results as given in article PMC314469, “Protein Interaction Networks by Proteome Peptide Scanning” (PLoS Biology, 2004).

T1: Boi2 SH3 (BOI2_YEAST), P39969
T1 chain: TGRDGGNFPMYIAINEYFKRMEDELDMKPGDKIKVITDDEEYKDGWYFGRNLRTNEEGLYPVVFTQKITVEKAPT

T2: Yhr016c SH3 (YSC84_YEAST), P32793
T2 chain: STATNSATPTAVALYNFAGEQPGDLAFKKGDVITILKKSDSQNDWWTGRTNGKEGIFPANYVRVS

T3: Yfr024 SH3 (LSB3_YEAST), P43603
T3 chain: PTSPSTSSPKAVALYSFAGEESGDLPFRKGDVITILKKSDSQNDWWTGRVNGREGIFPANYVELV

T4: Rvs167 SH3 (RV167_YEAST), P39743
T4 chain: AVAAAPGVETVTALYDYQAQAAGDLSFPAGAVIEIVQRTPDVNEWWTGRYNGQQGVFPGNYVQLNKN

T5: Boi1 SH3 (BOI1_YEAST), P38041
T5 chain: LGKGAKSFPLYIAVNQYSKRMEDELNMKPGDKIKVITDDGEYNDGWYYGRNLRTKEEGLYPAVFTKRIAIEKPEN


Molecular target: T1, Boi2 SH3 (BOI2_YEAST), P39969
Experiment: SPOT array

Binder	normalised SPOT signal, Boehringer light units (BLU); mean over the file's lines of this peptide
GIHPGFPIRMVQYA [YPL025C 36-49]	114
GPAPPPPPRASRPT [YOR181W 384-397]	55.8
GNIPVFPAKFGIQF [YAL010C 476-489]	59.2
GNTPDAPKRGFLGY [YDL245C 44-57]	27.7
GGQPPVPVRMQPQP [YBR108W 379-392]	89.9
GITPVGPGKFSRSA [YEL050C 256-269]	55.7
GHTPQFPTKDEVSS [YNR031C 1516-1529]	31.7
GRHPDMPTRVKNAY [YDR188W 219-232]	44.5
GSNPDLPNKSNLKF [YGR080W 307-320]	38.5

Further lines, results first:

normalised SPOT signal, Boehringer light units (BLU); mean over the file's lines of this peptide	Binder
30.8	GILPLAPLRPLDPL [YPL085W 915-928]
58.9	GLEPNTPLKSIKVD [YGL009C 340-353]
25.3	GSEPIDPSKLEFAR [YLR191W 299-312]
2	GGPPLLPQKSAAFQ [YPL084W 731-744]
54.1	GRIPQLPNRDEMTA [YCR073C 1268-1281]
17.2	GAPPPPPHKDHLSD [YMR280C 206-219]
41	GIKPQQPIKVDIKG [YPL105C 573-586]
42.7	GGDPTKPVRTWNDL [YEL056W 193-206]
29.6	GNVPHSPVRFADTV [YJR025C 93-106]
85.3	GKVPVQPRKRKSIT [YKL062W 547-560]
42.2	GRKPKDPSKPRQML [YML065W 331-344]
78.2	GAPPTTPSRPRTTT [YGR170W 91-104]
140	GPPPAMPARPTATT [YBL007C 192-205]

Molecular target: T2, Yhr016c SH3 (YSC84_YEAST), P32793
Experiment: SPOT array

Binder	normalised SPOT signal, Boehringer light units (BLU); mean over the file's lines of this peptide
GIHPGFPIRMVQYA [YPL025C 36-49]	154
GPAPPPPPRASRPT [YOR181W 384-397]	2360
GNIPVFPAKFGIQF [YAL010C 476-489]	212
GNTPDAPKRGFLGY [YDL245C 44-57]	230
GGQPPVPVRMQPQP [YBR108W 379-392]	1930
GITPVGPGKFSRSA [YEL050C 256-269]	81.1
GHTPQFPTKDEVSS [YNR031C 1516-1529]	266
GRHPDMPTRVKNAY [YDR188W 219-232]	152
GSNPDLPNKSNLKF [YGR080W 307-320]	180

Continued, values first:

normalised SPOT signal, Boehringer light units (BLU); mean over the file's lines of this peptide	Binder
318	GILPLAPLRPLDPL [YPL085W 915-928]
47.7	GLEPNTPLKSIKVD [YGL009C 340-353]
37.9	GSEPIDPSKLEFAR [YLR191W 299-312]
119	GGPPLLPQKSAAFQ [YPL084W 731-744]
20900	GRIPQLPNRDEMTA [YCR073C 1268-1281]
154	GAPPPPPHKDHLSD [YMR280C 206-219]
153	GIKPQQPIKVDIKG [YPL105C 573-586]
170	GGDPTKPVRTWNDL [YEL056W 193-206]
49	GNVPHSPVRFADTV [YJR025C 93-106]
296	GKVPVQPRKRKSIT [YKL062W 547-560]
160	GRKPKDPSKPRQML [YML065W 331-344]
9930	GAPPTTPSRPRTTT [YGR170W 91-104]
1070	GPPPAMPARPTATT [YBL007C 192-205]

Molecular target: T3, Yfr024 SH3 (LSB3_YEAST), P43603
Experiment: SPOT array

Binder	normalised SPOT signal, Boehringer light units (BLU); mean over the file's lines of this peptide
GIHPGFPIRMVQYA [YPL025C 36-49]	331
GPAPPPPPRASRPT [YOR181W 384-397]	6370
GNIPVFPAKFGIQF [YAL010C 476-489]	1730
GNTPDAPKRGFLGY [YDL245C 44-57]	658
GGQPPVPVRMQPQP [YBR108W 379-392]	6010
GITPVGPGKFSRSA [YEL050C 256-269]	21.5
GHTPQFPTKDEVSS [YNR031C 1516-1529]	19.8
GRHPDMPTRVKNAY [YDR188W 219-232]	768
GSNPDLPNKSNLKF [YGR080W 307-320]	637

Second part, the binder after the results:

normalised SPOT signal, Boehringer light units (BLU); mean over the file's lines of this peptide	Binder
1660	GILPLAPLRPLDPL [YPL085W 915-928]
68.2	GLEPNTPLKSIKVD [YGL009C 340-353]
53.6	GSEPIDPSKLEFAR [YLR191W 299-312]
7090	GGPPLLPQKSAAFQ [YPL084W 731-744]
11500	GRIPQLPNRDEMTA [YCR073C 1268-1281]
47.2	GAPPPPPHKDHLSD [YMR280C 206-219]
103	GIKPQQPIKVDIKG [YPL105C 573-586]
203	GGDPTKPVRTWNDL [YEL056W 193-206]
0.8	GNVPHSPVRFADTV [YJR025C 93-106]
1430	GKVPVQPRKRKSIT [YKL062W 547-560]
268	GRKPKDPSKPRQML [YML065W 331-344]
13900	GAPPTTPSRPRTTT [YGR170W 91-104]
11500	GPPPAMPARPTATT [YBL007C 192-205]

Molecular target: T4, Rvs167 SH3 (RV167_YEAST), P39743
Experiment: SPOT array

Binder	normalised SPOT signal, Boehringer light units (BLU); mean over the file's lines of this peptide
GIHPGFPIRMVQYA [YPL025C 36-49]	24.6
GPAPPPPPRASRPT [YOR181W 384-397]	3120
GNIPVFPAKFGIQF [YAL010C 476-489]	50.1
GNTPDAPKRGFLGY [YDL245C 44-57]	37.1
GGQPPVPVRMQPQP [YBR108W 379-392]	794
GITPVGPGKFSRSA [YEL050C 256-269]	32.3
GHTPQFPTKDEVSS [YNR031C 1516-1529]	22.1
GRHPDMPTRVKNAY [YDR188W 219-232]	148
GSNPDLPNKSNLKF [YGR080W 307-320]	26.2

Second part, the binder after the results:

normalised SPOT signal, Boehringer light units (BLU); mean over the file's lines of this peptide	Binder
57.3	GILPLAPLRPLDPL [YPL085W 915-928]
59.1	GLEPNTPLKSIKVD [YGL009C 340-353]
33	GSEPIDPSKLEFAR [YLR191W 299-312]
28.4	GGPPLLPQKSAAFQ [YPL084W 731-744]
11900	GRIPQLPNRDEMTA [YCR073C 1268-1281]
75.6	GAPPPPPHKDHLSD [YMR280C 206-219]
38.7	GIKPQQPIKVDIKG [YPL105C 573-586]
16.4	GGDPTKPVRTWNDL [YEL056W 193-206]
36.2	GNVPHSPVRFADTV [YJR025C 93-106]
73	GKVPVQPRKRKSIT [YKL062W 547-560]
31.8	GRKPKDPSKPRQML [YML065W 331-344]
366	GAPPTTPSRPRTTT [YGR170W 91-104]
83.3	GPPPAMPARPTATT [YBL007C 192-205]

Molecular target: T5, Boi1 SH3 (BOI1_YEAST), P38041
Experiment: SPOT array

Binder	normalised SPOT signal, Boehringer light units (BLU); mean over the file's lines of this peptide
GIHPGFPIRMVQYA [YPL025C 36-49]	69.6
GPAPPPPPRASRPT [YOR181W 384-397]	10300
GNIPVFPAKFGIQF [YAL010C 476-489]	46.1
GNTPDAPKRGFLGY [YDL245C 44-57]	86.5
GGQPPVPVRMQPQP [YBR108W 379-392]	85.9
GITPVGPGKFSRSA [YEL050C 256-269]	21.6
GHTPQFPTKDEVSS [YNR031C 1516-1529]	25.2
GRHPDMPTRVKNAY [YDR188W 219-232]	104
GSNPDLPNKSNLKF [YGR080W 307-320]	163

Further lines, results first:

normalised SPOT signal, Boehringer light units (BLU); mean over the file's lines of this peptide	Binder
115	GILPLAPLRPLDPL [YPL085W 915-928]
55.1	GLEPNTPLKSIKVD [YGL009C 340-353]
57.5	GSEPIDPSKLEFAR [YLR191W 299-312]
128	GGPPLLPQKSAAFQ [YPL084W 731-744]
78.4	GRIPQLPNRDEMTA [YCR073C 1268-1281]
104	GAPPPPPHKDHLSD [YMR280C 206-219]
115	GIKPQQPIKVDIKG [YPL105C 573-586]
31.1	GGDPTKPVRTWNDL [YEL056W 193-206]
115	GNVPHSPVRFADTV [YJR025C 93-106]
242	GKVPVQPRKRKSIT [YKL062W 547-560]
147	GRKPKDPSKPRQML [YML065W 331-344]
0	GAPPTTPSRPRTTT [YGR170W 91-104]
86.8	GPPPAMPARPTATT [YBL007C 192-205]
